Source: patent US20240270846A1 (published 2024)
Substitutions are numbered along the chain they refer to. Numbers in names are those of the source.

B1: CE115HA000 N53A one-arm antibody (antibody, human IgG1, kappa, L234A L235A, N297A, name in Kabat numbering)
heavy: QVQLVESGGGVVQPGRSLRLSCAASGFTFSNAWMHWVRQAPGKGLEWVAQIKAKSANYATYYAESVKGRFTISRDDSKNSLYLQMNSLKTEDTAVYYCRYVHYGAYYGVDAWGQGTTVTVSSASTKGPSVFPLAPSSKSTSGGTAALGCLVKDYFPEPVTVSWNSGALTSGVHTFPAVLQSSGLYSLSSVVTVPSSSLGTQTYICNVNHKPSNTKVDKKVEPKSCDKTHTCPPCPAPEAAGGPSVFLFPPKPKDTLMISRTPEVTCVVVDVSHEDPEVKFNWYVDGVEVHNAKTKPREEQYASTYRVVSVLTVLHQDWLNGKEYKCKVSNKALPAPIEKTISKAKGQPREPQVYTLPPSRCELTKNQVSLSCAVKGFYPSDIAVEWESNGQPENNYKTTPPVLDSDGSFFLVSKLTVDKSRWQQGNVFSCSVMHEALHNHYTQKSLSLSPDYKDDDDK
chain: EPKSSDKTHTCPPCPAPELLGGPSVFLFPPKPKDTLMISRTPEVTCVVVDVSHEDPEVKFNWYVDGVEVHNAKTKPREEQYNSTYRVVSVLTVLHQDWLNGKEYKCKVSNKALPAPIEKTISKAKGQPREPQVCTLPPSRDELTKNQVSLWCLVKGFYPSDIAVEWESNGQPENNYKTTPPVLDSDGSFFLYSKLTVDKSRWQQGNVFSCSVMHEALHNRYTQKSLSLSP
light: DIVMTQSPLSLPVTPGEPASISCRSSQSLVHSNRNTYLHWYQQKPGQAPRLLIYKVSNRFSGVPDRFSGSGSGTDFTLKISRVEAEDVGVYYCGQGTQVPYTFGQGTKLEIKRTVAAPSVFIFPPSDEQLKSGTASVVCLLNNFYPREAKVQWKVDNALQSGNSQESVTEQDSKDSTYSLSSTLTLSKADYEKHKVYACEVTHQGLSSPVTKSFNRGEC
notes: one-arm antibody
B2: CE115HA000 Q50L one-arm antibody (antibody, human IgG1, kappa, L234A L235A, N297A, name in Kabat numbering)
heavy: B1 heavy with Q50L, A56N
chain: B1 chain
light: B1 light
notes: one-arm antibody
B3: CE115HA000 Q50K one-arm antibody (antibody, human IgG1, kappa, L234A L235A, N297A, name in Kabat numbering)
heavy: B1 heavy with Q50K, A56N
chain: B1 chain
light: B1 light
notes: one-arm antibody
B4: CE115HA000 Q50D one-arm antibody (antibody, human IgG1, kappa, L234A L235A, N297A, name in Kabat numbering)
heavy: B1 heavy with Q50D, A56N
chain: B1 chain
light: B1 light
notes: one-arm antibody
B5: CE115HA000 Q50I one-arm antibody (antibody, human IgG1, kappa, L234A L235A, N297A, name in Kabat numbering)
heavy: B1 heavy with Q50I, A56N
chain: B1 chain
light: B1 light
notes: one-arm antibody
B6: CE115HA000 S52cF one-arm antibody (antibody, human IgG1, kappa, L234A L235A, N297A, name in Kabat numbering)
heavy: B1 heavy with S55F, A56N
chain: B1 chain
light: B1 light
notes: one-arm antibody
B7: CE115HA000 S52cV one-arm antibody (antibody, human IgG1, kappa, L234A L235A, N297A, name in Kabat numbering)
heavy: B1 heavy with S55V, A56N
chain: B1 chain
light: B1 light
notes: one-arm antibody
B8: CE115HA000 N53I one-arm antibody (antibody, human IgG1, kappa, L234A L235A, N297A, name in Kabat numbering)
heavy: B1 heavy with A56I
chain: B1 chain
light: B1 light
notes: one-arm antibody
B9: CE115HA000 S52cG one-arm antibody (antibody, human IgG1, kappa, L234A L235A, N297A, name in Kabat numbering)
heavy: B1 heavy with S55G, A56N
chain: B1 chain
light: B1 light
notes: one-arm antibody
B10: CE115HA000 N53G one-arm antibody (antibody, human IgG1, kappa, L234A L235A, N297A, name in Kabat numbering)
heavy: B1 heavy with A56G
chain: B1 chain
light: B1 light
notes: one-arm antibody
B11: CE115HA000 S52cA one-arm antibody (antibody, human IgG1, kappa, L234A L235A, N297A, name in Kabat numbering)
heavy: B1 heavy with S55A, A56N
chain: B1 chain
light: B1 light
notes: one-arm antibody
B12: CE115HA000 N54D one-arm antibody (antibody, human IgG1, kappa, L234A L235A, N297A, name in Kabat numbering)
heavy: B1 heavy with A56N, N57D
chain: B1 chain
light: B1 light
notes: one-arm antibody
B13: CE115HA000 S52cK one-arm antibody (antibody, human IgG1, kappa, L234A L235A, N297A, name in Kabat numbering)
heavy: B1 heavy with S55K, A56N
chain: B1 chain
light: B1 light
notes: one-arm antibody
B14: CE115HA000 N54F one-arm antibody (antibody, human IgG1, kappa, L234A L235A, N297A, name in Kabat numbering)
heavy: B1 heavy with A56N, N57F
chain: B1 chain
light: B1 light
notes: one-arm antibody
B15: CE115HA000 S30G one-arm antibody (antibody, human IgG1, kappa, L234A L235A, N297A, name in Kabat numbering)
heavy: B1 heavy with S30G, A56N
chain: B1 chain
light: B1 light
notes: one-arm antibody
B16: CE115HA000 Q50Y one-arm antibody (antibody, human IgG1, kappa, L234A L235A, N297A, name in Kabat numbering)
heavy: B1 heavy with Q50Y, A56N
chain: B1 chain
light: B1 light
notes: one-arm antibody
B17: CE115HA000 N53D one-arm antibody (antibody, human IgG1, kappa, L234A L235A, N297A, name in Kabat numbering)
heavy: B1 heavy with A56D
chain: B1 chain
light: B1 light
notes: one-arm antibody
B18: CE115HA000 Q50S one-arm antibody (antibody, human IgG1, kappa, L234A L235A, N297A, name in Kabat numbering)
heavy: B1 heavy with Q50S, A56N
chain: B1 chain
light: B1 light
notes: one-arm antibody
B19: CE115HA000 S52cL one-arm antibody (antibody, human IgG1, kappa, L234A L235A, N297A, name in Kabat numbering)
heavy: B1 heavy with S55L, A56N
chain: B1 chain
light: B1 light
notes: one-arm antibody
B20: CE115HA000 S30D one-arm antibody (antibody, human IgG1, kappa, L234A L235A, N297A, name in Kabat numbering)
heavy: B1 heavy with S30D, A56N
chain: B1 chain
light: B1 light
notes: one-arm antibody
B21: CE115HA000 R16E one-arm antibody (antibody, human IgG1, kappa, L234A L235A, N297A, name in Kabat numbering)
heavy: B1 heavy with R16E, A56N
chain: B1 chain
light: B1 light
notes: one-arm antibody
B22: CE115HA000 R16Q one-arm antibody (antibody, human IgG1, kappa, L234A L235A, N297A, name in Kabat numbering)
heavy: B1 heavy with R16Q, A56N
chain: B1 chain
light: B1 light
notes: one-arm antibody
B23: CE115HA000 N54K one-arm antibody (antibody, human IgG1, kappa, L234A L235A, N297A, name in Kabat numbering)
heavy: B1 heavy with A56N, N57K
chain: B1 chain
light: B1 light
notes: one-arm antibody
B24: CE115HA000 R19T one-arm antibody (antibody, human IgG1, kappa, L234A L235A, N297A, name in Kabat numbering)
heavy: B1 heavy with R19T, A56N
chain: B1 chain
light: B1 light
notes: one-arm antibody
B25: CE115HA000 Q50A one-arm antibody (antibody, human IgG1, kappa, L234A L235A, N297A, name in Kabat numbering)
heavy: B1 heavy with Q50A, A56N
chain: B1 chain
light: B1 light
notes: one-arm antibody
B26: CE115HA000 Q50E one-arm antibody (antibody, human IgG1, kappa, L234A L235A, N297A, name in Kabat numbering)
heavy: B1 heavy with Q50E, A56N
chain: B1 chain
light: B1 light
notes: one-arm antibody
B27: CE115HA000 N54A one-arm antibody (antibody, human IgG1, kappa, L234A L235A, N297A, name in Kabat numbering)
heavy: B1 heavy with A56N, N57A
chain: B1 chain
light: B1 light
notes: one-arm antibody
B28: CE115HA000 S52cD one-arm antibody (antibody, human IgG1, kappa, L234A L235A, N297A, name in Kabat numbering)
heavy: B1 heavy with S55D, A56N
chain: B1 chain
light: B1 light
notes: one-arm antibody
B29: CE115HA000 N53K one-arm antibody (antibody, human IgG1, kappa, L234A L235A, N297A, name in Kabat numbering)
heavy: B1 heavy with A56K
chain: B1 chain
light: B1 light
notes: one-arm antibody
B30: CE115HA000 N53H one-arm antibody (antibody, human IgG1, kappa, L234A L235A, N297A, name in Kabat numbering)
heavy: B1 heavy with A56H
chain: B1 chain
light: B1 light
notes: one-arm antibody
B31: CE115HA000 N54G one-arm antibody (antibody, human IgG1, kappa, L234A L235A, N297A, name in Kabat numbering)
heavy: B1 heavy with A56N, N57G
chain: B1 chain
light: B1 light
notes: one-arm antibody
B32: CE115HA000 S52cQ one-arm antibody (antibody, human IgG1, kappa, L234A L235A, N297A, name in Kabat numbering)
heavy: B1 heavy with S55Q, A56N
chain: B1 chain
light: B1 light
notes: one-arm antibody

target: T1, CD3 epsilon homodimer protein (UniProt P07766 23-126); assay: SPR Biacore T200, antibody over immobilised CD3e homodimer;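 also: CD3 epsilon homodimer amine-coupled on a CM4 chip, run at 25 °C in HBS-EP+, Z = bound amount of each single-residue H chain variant over that of the parent antibody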
T1 construct: also called CD3 (CD3 epsilon)
T1 sequence (P07766 23-126): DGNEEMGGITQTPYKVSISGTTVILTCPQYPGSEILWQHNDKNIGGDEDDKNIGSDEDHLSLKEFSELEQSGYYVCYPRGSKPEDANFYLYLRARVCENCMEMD

Binder | ratio of amounts bound (Z=Y/X vs CE115HA000)
B1 | 0.7
B2 | 0.23
B3 | 0.33
B4 | 0.27
B5 | 0.4
B6 | 1.13
B7 | 0.93
B8 | 0.68
B9 | 0.97
B10 | 0.5
B11 | 0.96
B12 | 0.62
B13 | 1.19
B14 | 1.12
B15 | 1.01
B16 | 0.25

Binder | ratio of amounts bound (Z=Y/X vs CE115HA000)
B17 | 0.39
B18 | 0.24
B19 | 0.98
B20 | 0.86
B21 | 0.88
B22 | 0.9
B23 | 1.2
B24 | 0.8
B25 | 0.24
B26 | 0.26
B27 | 0.85
B28 | 0.6
B29 | 0.78
B30 | 0.76
B31 | 0.98
B32 | 1.04
